These results are taken from patent US20230053493A1, “ONE STEP METHODS, KITS, AND SYSTEMS FOR THE MEASUREMENT OF CONCENTRATIONS OF UNBOUND BILIRUBIN IN BIOLOGICAL FLUIDS” (priority 2019, published 2023).

A short description of the experiment: Calibration of free NIR probe/sensor by bilirubin titration (cuvette fluorometry, fit with equation 1). The conditions noted are these: for Qs (Rm/Ro): degree to which the probe is quenched by bilirubin binding, effect of fluorophore position. Type of experiment: binding. The text has this: Embodiments provided herein are directed to methods of calibrating the bilirubin probes by mixing in an aqueous media the sensor with samples of bilirubin of increasing total bilirubin concentrations (BT), measuring the ratio of fluorescence intensities R of the sensor at each concentration, and determining the calibration parameters (Kd, Rm, and Ro) from the measured fluorescence by fitting with the equation (1), wherein R is the measured fluorescence ratio (Iλ1/Iλ2), where hi is the fluorescence intensity from the first fluorophore at wavelength λ1 and Iλ2 is the fluorescence intensity from the second fluorophore at wavelength λ2, both λ1 and λ2 have background subtracted, and Ro is the ratio in the absence of bilirubin. BT is the total bilirubin concentration and PT is the concentration of the sensor, r is the Iλ2/Iλ1 ratio of the bilirubin sensitive probe's fluorescence in the absence of the second fluorophore, Kd is the equilibrium dissociation constant of the sensor and Rm is the ratio R extrapolated to infinite BT. Equation (1) is used in some embodiments rather than equation (5) of U.S. Pat. No. 9,529,003 when Rm is >0.
Also described are methods for calibrating and using a bilirubin sensor described herein so that Bf concentrations can be determined in approximately 5 μl of undiluted blood samples in a single step. These small volume blood samples are applied to the disposable plastic microfluidic cartridges containing the dried bilirubin ratio sensor. The bilirubin sensor containing cartridges are preferably used for a single measurement and the calibration parameters (Kd, Rm, Ro) must be determined within a “lot” of identically manufactured cartridges. The calibration is performed by titrating a sufficient number of cartridges with aqueous samples of increasing well-defined Bf levels. Because plastics bind unbound bilirubin and because surface to volume ratio in the microfluidics channel is large, the calibration Bf samples must be highly buffered by complexes with albumin. The Bf concentrations of each complex are determined by measuring each by cuvette fluorometry using a calibrated sensor free in aqueous solutions. The free sensor is calibrated by titration with aqueous solutions of bilirubin where the concentrations of these unbound bilirubin solutions are determined by absorbance. The free probe's response (R values versus Bf concentrations) are used to determine the free sensor's calibration (Kd, Rm, Ro) (equation 1). The calibrated free sensor mixed with samples of each of the BR:HSA complexes is used to determine the Bf concentrations of each complexes by cuvette fluorometry using equation 2. These calibrated complexes are used to determine the binding parameters of the disposable cartridges including the equilibrium dissociation constant (Kd), the minimum fluorescence ratio (Rm) and the initial ratio (Ro) under defined conditions, of temperature, pH, and solution composition, suitable for blood samples. Binding isotherms are performed in aqueous buffer by measuring the change in fluorescence of the bilirubin sensor in response to increasing bilirubin concentrations (“titration data”). The set of fluorescence responses at each bilirubin concentration are fitted with an appropriate equation (“calibration equation (3)”) that correctly describes the fluorescence response as a function of the Bf concentration, the, specific spectroscopic characteristics, and the Kd.
All responder probes labeled with LICOR 700DX-maleimide and non-responder probes labeled with LICOR 800CW-maleimide probes in Tables 1 and 2, respectively have qualitatively similar dependencies on Bf. The probes differ mostly in protein expression, binding parameters (Kd, Ro and Rm) and stability. […] Although the non-responders are not characterized by bilirubin binding parameters, the emission spectrum of the 800CW-maleimide is sensitive to specific substitutions that can alter the LICOR 700DX-maleimide intensities. […]

Setting [1] is: effect of fluorophore (cysteine) position, responder probe labeled with 700DX-maleimide.
Setting [2] is: free Bf sensor, fit of equation 1 (FIG. 2).

B1: 76C-C2XH11-700DXM: rIFABP mutein MGI-KR14-14R 18L 27A 38V 60R 73F 76C 106L 115R 117D 131D-C2XH11 labeled with LICOR 700DX-maleimide (protein)
chain: MGIAFDGTWRVDRNENRERFLERMGINVVARRLGAHDNLRVTITQEGNRFTVRESSNFRNIDRVFELGVDFAYSLFDGCELTGTWTMEGNRLVGRFRRVDNGRELIAVLEISGNELIRTDTYEGVEARRIFRRDRGAASHHHHHHSHRATPNTSPHHHHHHH
modifications: LICOR 700DX-maleimide label; mutated bf sensitive probe
notes: rIFABP mutein MGI-KR14-14R 18L 27A 38V 60R 73F 76C 106L 115R 117D 131D-C2XH11 labeled with LICOR 700DX-maleimide
B1: the “Qs (Rm/Ro)” value turned out to be 0.04. Further, the equilibrium dissociation constant (Kd) – broadly, the constant that tells how readily two partners part at equilibrium – under setting [1] stood at 14 nM. For the same molecule, where the note is “free Bf sensor with non-responder Mut:SEQ ID NO:1 B-73C in aqueous buffer, excitation 660 nm, 700/805 ratio, fit of equation 1 (FIG. 2)”, the Kd worked out at 12.4 ± 0.4 nM. Further, under setting [2], the “Qs which is Rm/Ro” value amounted to 0.139±0.007, the Rm was determined as 0.42 and the Ro came out at 3.02.

B2: 30C-C2XH11-700DXM: rIFABP mutein MGI-KR14-14R 18L 27A 30C 38V 60R 73F 106L 115R 117D 131D-C2XH11 labeled with LICOR 700DX-maleimide (protein)
chain: MGIAFDGTWRVDRNENRERFLERMGINVVARRCGAHDNLRVTITQEGNRFTVRESSNFRNIDRVFELGVDFAYSLFDGTELTGTWTMEGNRLVGRFRRVDNGRELIAVLEISGNELIRTDTYEGVEARRIFRRDRGAASHHHHHHSHRATPNTSPHHHHHHH
modifications: C2XH11 tag; LICOR 700DX-maleimide label; mutated bf sensitive probe
notes: rIFABP mutein MGI-KR14-14R 18L 27A 30C 38V 60R 73F 106L 115R 117D 131D-C2XH11 labeled with LICOR 700DX-maleimide
Take B2: the “Qs (Rm/Ro)” value worked out at 0.11. The molecule also yielded a dissociation constant Kd under setting [1] of 41 nM.

B3: 97C-C2XH11-700DXM: rIFABP mutein MGI-KR14-14R 18L 27A 38V 60R 73F 97C 106L 115R 117D 131D-C2XH11 labeled with LICOR 700DX-maleimide (protein)
chain: MGIAFDGTWRVDRNENRERFLERMGINVVARRLGAHDNLRVTITQEGNRFTVRESSNFRNIDRVFELGVDFAYSLFDGTELTGTWTMEGNRLVGRFRRVCNGRELIAVLEISGNELIRTDTYEGVEARRIFRRDRGAASHHHHHHSHRATPNTSPHHHHHHH
modifications: LICOR 700DX-maleimide label; mutated bf sensitive probe
notes: rIFABP mutein MGI-KR14-14R 18L 27A 38V 60R 73F 97C 106L 115R 117D 131D-C2XH11 labeled with LICOR 700DX-maleimide
For B3, the “Qs (Rm/Ro)” value came out at 0.29. In addition, the dissociation constant (Kd) under setting [1] turned out to be 25 nM.

B4: 25C-C2XH11-700DXM: rIFABP mutein MGI-KR14-14R 18L 25C 27A 38V 60R 73F 106L 115R 117D 131D-C2XH11 labeled with LICOR 700DX-maleimide (protein)
chain: MGIAFDGTWRVDRNENRERFLERMGINCVARRLGAHDNLRVTITQEGNRFTVRESSNFRNIDRVFELGVDFAYSLFDGTELTGTWTMEGNRLVGRFRRVDNGRELIAVLEISGNELIRTDTYEGVEARRIFRRDRGAASHHHHHHSHRATPNTSPHHHHHHH
modifications: C2XH11 tag; LICOR 700DX-maleimide label; mutated bf sensitive probe
notes: rIFABP mutein MGI-KR14-14R 18L 25C 27A 38V 60R 73F 106L 115R 117D 131D-C2XH11 labeled with LICOR 700DX-maleimide
As for B4, the “Qs (Rm/Ro)” value turned out to be 0.27. Also, under setting [1], the Kd worked out at 12 nM.

B5: 98C-C2XH11-700DXM: rIFABP mutein MGI-KR14-14R 18L 27A 38V 60R 73F 98C 106L 115R 117D 131D-C2XH11 labeled with LICOR 700DX-maleimide (protein)
chain: MGIAFDGTWRVDRNENRERFLERMGINVVARRLGAHDNLRVTITQEGNRFTVRESSNFRNIDRVFELGVDFAYSLFDGTELTGTWTMEGNRLVGRFRRVDCGRELIAVLEISGNELIRTDTYEGVEARRIFRRDRGAASHHHHHHSHRATPNTSPHHHHHHH
modifications: LICOR 700DX-maleimide label; mutated bf sensitive probe
notes: rIFABP mutein MGI-KR14-14R 18L 27A 38V 60R 73F 98C 106L 115R 117D 131D-C2XH11 labeled with LICOR 700DX-maleimide
For the molecule B5, the “Qs (Rm/Ro)” value came to 0.03. Under setting [1], the equilibrium dissociation constant (Kd) is 13 nM.

B6: 33C-C2XH11-700DXM: rIFABP mutein MGI-KR14-14R 18L 27A 33C 38V 60R 73F 106L 115R 117D 131D-C2XH11 labeled with LICOR 700DX-maleimide (protein)
chain: MGIAFDGTWRVDRNENRERFLERMGINVVARRLGACDNLRVTITQEGNRFTVRESSNFRNIDRVFELGVDFAYSLFDGTELTGTWTMEGNRLVGRFRRVDNGRELIAVLEISGNELIRTDTYEGVEARRIFRRDRGAASHHHHHHSHRATPNTSPHHHHHHH
modifications: C2XH11 tag; LICOR 700DX-maleimide label; mutated bf sensitive probe
notes: rIFABP mutein MGI-KR14-14R 18L 27A 33C 38V 60R 73F 106L 115R 117D 131D-C2XH11 labeled with LICOR 700DX-maleimide
For B6, the “Qs (Rm/Ro)” value is on record as 0.17. Besides, the Kd under setting [1] amounted to 25 nM.

B7: 24C- C2XH11-700DXM: rIFABP mutein MGI-KR14-14R 18L 24C 27A 38V 60R 73F 106L 115R 117D 131D-C2XH11 labeled with LICOR 700DX-maleimide (protein)
chain: MGIAFDGTWRVDRNENRERFLERMGICVVARRLGAHDNLRVTITQEGNRFTVRESSNFRNIDRVFELGVDFAYSLFDGTELTGTWTMEGNRLVGRFRRVDNGRELIAVLEISGNELIRTDTYEGVEARRIFRRDRGAASHHHHHHSHRATPNTSPHHHHHHH
modifications: C2XH11 tag; LICOR 700DX-maleimide label; mutated bf sensitive probe
notes: rIFABP mutein MGI-KR14-14R 18L 24C 27A 38V 60R 73F 106L 115R 117D 131D-C2XH11 labeled with LICOR 700DX-maleimide
Take B7: the “Qs (Rm/Ro)” value was found to be 0.14. This molecule returned a Kd under setting [1] of 44 nM.

B8: 54C-C2XH11-700DXM: rIFABP mutein MGI-KR14-14R 18L 27A 38V 54C 60R 73F 106L 115R 117D 131D-C2XH11 labeled with LICOR 700DX-maleimide (protein)
chain: MGIAFDGTWRVDRNENRERFLERMGINVVARRLGAHDNLRVTITQEGNRFTVRESSCFRNIDRVFELGVDFAYSLFDGTELTGTWTMEGNRLVGRFRRVDNGRELIAVLEISGNELIRTDTYEGVEARRIFRRDRGAASHHHHHHSHRATPNTSPHHHHHHH
modifications: C2XH11 tag; LICOR 700DX-maleimide label; mutated bf sensitive probe
notes: rIFABP mutein MGI-KR14-14R 18L 27A 38V 54C 60R 73F 106L 115R 117D 131D-C2XH11 labeled with LICOR 700DX-maleimide
With B8, the “Qs (Rm/Ro)” value is 0.48. This molecule also came in with a Kd under setting [1] of 22 nM.

B9: 74C-C2XH11-700DXM: rIFABP mutein MGI-KR14-14R 18L 27A 38V 60R 73F 74C 106L 115R 117D 131D-C2XH11 labeled with LICOR 700DX-maleimide (protein)
chain: MGIAFDGTWRVDRNENRERFLERMGINVVARRLGAHDNLRVTITQEGNRFTVRESSNFRNIDRVFELGVDFAYSLFCGTELTGTWTMEGNRLVGRFRRVDNGRELIAVLEISGNELIRTDTYEGVEARRIFRRDRGAASHHHHHHSHRATPNTSPHHHHHHH
modifications: C2XH11 tag; LICOR 700DX-maleimide label; mutated bf sensitive probe
notes: rIFABP mutein MGI-KR14-14R 18L 27A 38V 60R 73F 74C 106L 115R 117D 131D-C2XH11 labeled with LICOR 700DX-maleimide
Take B9: the “Qs (Rm/Ro)” value is given as 0.15. Also, binding under setting [1] was put at a Kd of 16 nM.

B10: 29C-C2XH11-700DXM: rIFABP mutein MGI-KR14-14R 18L 27A 29C 38V 60R 73F 106L 115R 117D 131D-C2XH11 labeled with LICOR 700DX-maleimide (protein)
chain: MGIAFDGTWRVDRNENRERFLERMGINVVARCLGAHDNLRVTITQEGNRFTVRESSNFRNIDRVFELGVDFAYSLFDGTELTGTWTMEGNRLVGRFRRVDNGRELIAVLEISGNELIRTDTYEGVEARRIFRRDRGAASHHHHHHSHRATPNTSPHHHHHHH
modifications: C2XH11 tag; LICOR 700DX-maleimide label; mutated bf sensitive probe
notes: rIFABP mutein MGI-KR14-14R 18L 27A 29C 38V 60R 73F 106L 115R 117D 131D-C2XH11 labeled with LICOR 700DX-maleimide
As to B10, the “Qs (Rm/Ro)” value is listed as 0.52. In addition, binding under setting [1] was characterised by a dissociation constant (Kd) of 29 nM.
